Laboratory results: patent publication EP4745156A1

Columns and labels:
[1] = molecular target: His-tagged canine IL-31 (interleukin 31) recombinant protein (canine); assay: BLI (Gator), biotinylated antibody on streptavidin probe, canine IL-31 as analyte
[2] = molecular target: His-tagged canine IL-31 (interleukin 31) recombinant protein (canine); assay: cell-based or functional assay

| Binder | Kd [1] | koff [1] | kon [1] | pSTAT IC50 (µg/mL) [2] |
| --- | --- | --- | --- | --- |
| 6465-H1K2-canIgGB (antibody, V domains shown) VH: EVQLVESGGDLVKPGGSLRLSCVASGYSFTNYYLYWVRQAPGKGLEWVGELNPRNGGTNLNAKFKTRFTISVDKAKNMAYLQMNSLRAEDTAVYYCTRGGTTVVVRDVMDFWGQGTLVTVSS VL: DIVLTQTPLSLSVSPGEPASISCRASESVDSYGNSFMHWYRQKPGQSPQLLIYRASNLESGVPDRFSGSGSRTDFTLRISRVEADDAGVYYCQQSNEDPYTFGQGTKLEIKR | 6.54 nM | 0.00088 s⁻¹ | 135000 M⁻¹ s⁻¹ | 7.9 µg/mL |
| 6465-H3K2-canIgGB (antibody, V domains shown) VH: EVQLVESGGDLVKPGGSLRLSCVASGYSFTNYYLYWVRQAPGKGLEWVAELNPRNGGTNLNAKFKTRFTISRDNAKNMAYLQMNSLRAEDTAVYYCTRGGTTVVVRDVMDFWGQGTLVTVSS VL: DIVLTQTPLSLSVSPGEPASISCRASESVDSYGNSFMHWYRQKPGQSPQLLIYRASNLESGVPDRFSGSGSRTDFTLRISRVEADDAGVYYCQQSNEDPYTFGQGTKLEIKR | 6.95 nM | 0.00361 s⁻¹ | 519000 M⁻¹ s⁻¹ | 8.2 µg/mL |
| 6465-H2K2-canIgGB (antibody, V domains shown) VH: EVQLVESGGDLVKPGGSLRLSCVASGYSFTNYYLYWVRQAPGKGLQWLGELNPRNGGTNLNAKFKTRFTISVDKAKNTAYLQMNSLRAEDTAVYYCTRGGTTVVVRDVMDFWGQGTLVTVSS VL: DIVLTQTPLSLSVSPGEPASISCRASESVDSYGNSFMHWYRQKPGQSPQLLIYRASNLESGVPDRFSGSGSRTDFTLRISRVEADDAGVYYCQQSNEDPYTFGQGTKLEIKR | 17.8 nM | 0.00166 s⁻¹ | 93200 M⁻¹ s⁻¹ | 7.3 µg/mL |

These reach a lower Kd [1]. Values come first.

| Kd [1] | koff [1] | kon [1] | pSTAT IC50 (µg/mL) [2] | Binder |
| --- | --- | --- | --- | --- |
| 4.99 nM | 0.001 s⁻¹ | 201000 M⁻¹ s⁻¹ | 7.6 µg/mL | 6465-H2K3-canIgGB (antibody, V domains shown) VH: EVQLVESGGDLVKPGGSLRLSCVASGYSFTNYYLYWVRQAPGKGLQWLGELNPRNGGTNLNAKFKTRFTISVDKAKNTAYLQMNSLRAEDTAVYYCTRGGTTVVVRDVMDFWGQGTLVTVSS VL: DIVMTQTPLSLSVSPGEPASISCRASESVDSYGNSFMHWYRQKPGQSPQLLIYRASNLESGVPDRFSGSGSGTDFTLRISRVEADDAGVYYCQQSNEDPYTFGQGTKLEIKR |
| 2.5 nM | 0.00145 s⁻¹ | 579000 M⁻¹ s⁻¹ | 7.4 µg/mL | 6465-H1K3-canIgGB (antibody, V domains shown) VH: EVQLVESGGDLVKPGGSLRLSCVASGYSFTNYYLYWVRQAPGKGLEWVGELNPRNGGTNLNAKFKTRFTISVDKAKNMAYLQMNSLRAEDTAVYYCTRGGTTVVVRDVMDFWGQGTLVTVSS VL: DIVMTQTPLSLSVSPGEPASISCRASESVDSYGNSFMHWYRQKPGQSPQLLIYRASNLESGVPDRFSGSGSGTDFTLRISRVEADDAGVYYCQQSNEDPYTFGQGTKLEIKR |
